Experimental data reported in patent US20190233522A1, “NEW DOSAGE REGIMENS FOR ANTIBODY DRUG CONJUGATES BASED ON ANTI-AXL ANTIBODIES” (GENMAB A/S, priority 2016, published 2019).

Assays:
LCLC-103H tumors = assay: LCLC-103H xenograft model (low Gas6, Example 5); assay type: in vivo; details: 3 mg/kg i.p., SCID mice
Protocol: (§1) Tumor induction was performed by subcutaneous injection of 5×10^6 A431 or LCLC-103H tumor cells (both obtained from Leibniz-Institut—Deutsche Sammlung von Mikroorganismen and Zellkulturen GmbH (DSMZ)) in 200 μL PBS in the right flank of female SCID mice. Treatment was started 14-21 days after tumor cell inoculation, when the average tumor size was >100-200 mm^3 and distinct tumor growth was observed. Mice received a single injection or a total of 4 biweekly intraperitoneal injections with IgG1-AXL-vcMMAE ADCs or control antibody (unconjugated IgG1-b12), as indicated. Tumor volume was determined at least two times per week. Tumor volumes (mm^3) were calculated from caliper (PLEXX) measurements as: 0.52×(length)×(width)^2.

A431 cells = assay: Cytotoxicity assay (CellTiter-Glo) in A431 cells; assay type: cell-based; details: A431 (n = 3), 5 days incubation
Protocol: (§2) LCLC-103H cells (human large cell lung cancer) and A431 cells (DMSZ, Braunschweig, Germany) were cultured in RPMI 1640 with L-Glutamine (Cambrex; cat.no. BE12-115F) supplemented with 10% (vol/vol) heat inactivated Cosmic Calf Serum (Perbio; cat.no. SH30087.03), 2 mM L-glutamine (Cambrex; cat.no. US17-905C), 50 IU/mL penicillin, and 50 µg/mL streptomycin (Cambrex; cat.no. DE17-603E). MDA-MB231 cells were cultured in DMEM with high glucose and HEPES (Lonza #BE12-709F), Donor Bovine Serum with Iron (Life Technologies #10371-029), 2 mM L-glutamine (Lonza #BE17 -605E), 1 mM Sodium Pyruvate (Lonza #BE13-115E), and MEM Non-Essential Amino Acids Solution (Life Technologies #11140). The cell lines were maintained at 37° C. in a 5% (vol/vol) CO2 humidified incubator. LCLC-103H, A431 and MDA-MB231 cells were cultured to near confluency, after which cells were trypsinized, resuspended in culture medium and passed through a cell strainer (BD Falcon, cat.no. 352340) to obtain a single cell suspension. […]
(§3) Subsequently, 180 μL per well was transferred to white 96-well Optiplate™ plates (PerkinElmer, Waltham, Mass.; cat.no. 6005299), which were incubated for 30 min at room temperature. Finally, luminescence was measured on an EnVision multiplate reader (Envision, Perkin Elmer).

[1] = test system: LCLC-103H xenograft tumors; assay: Therapeutic treatment of SC LCLC-103H tumor xenografts (Example 3); assay type: in vivo, SCID mice
Protocol: The in vivo efficacy of MMAE-conjugated anti-AXL antibodies was determined in established subcutaneous (SC) LCLC-103H xenograft tumors in SCID mice. 5×10^6 LCLC-103H (large cell lung carcinoma) tumor cells (obtained from Leibniz-Institut DSMZ-Deutsche Sammlung von Mikroorganismen and Zellkulturen GmbH (DSMZ)) in 200 μL PBS were injected subcutaneously in the right flank of female SCID mice. Starting 14-21 days after tumor cell inoculation, when the average tumor size was >100-200 mm^3 and distinct tumor growth was observed, a single injection with 1 mg/kg (20 μg/mouse) IgG1-AXL-vcMMAE antibodies or control (unconjugated IgG1-b12) was given intraperitoneally (100 μL/mouse). Tumor volume was determined at least two times per week. Tumor volumes (mm^3) were calculated from caliper (PLEXX) measurements as: 0.52×(length)×(width)^2.

[2] = Pre-clinical PK studies in cynomolgus monkey; assay type: in vivo
Excerpt: Data from 5 in-vivo pre-clinical studies, shown in the Table below, were provided, containing measurements of the plasma ADC level, plasma IgG level, and plasma MMAE level (only measured in study 5).
All studies appeared to show a significant drop in plasma concentrations of ADC/IgG after the 2nd dose when compared to the first dose, which corresponded with an ADA response. As this is a fully human antibody, ADA response are only very rarely expected to occur in humans. Therefore, only data after the first dose were included in the data preparation and subsequently modelled.

MDA-MB231 cells = assay: Cytotoxicity assay (CellTiter-Glo) in MDA-MB231 cells; assay type: cell-based; details: MDA-MB231 (n = 2), 5 days incubation
Protocol: as §2, §3

AXL = AXL (Homo sapiens, UniProt P30530); assay: Competition with Gas6 for binding to AXL
A431 tumors = assay: A431 xenograft model (high Gas6); assay type: in vivo; details: 3 mg/kg i.p., SCID mice
Protocol: as §1

PAXF1657 tumors = assay: PAXF1657 pancreas cancer PDX model; assay type: in vivo, NMRI nu/nu mice
Protocol: Human pancreas tumor tissue was subcutaneously implanted in the left flank of 5-7 weeks old female NMRI nu/nu mice. […] At day of randomization (day 0), the 3 ADCs were dosed intravenously (i.v.) at either 4 mg/kg or 2 mg/kg, and the control group received a single dose of IgG1-b12 (4 mg/kg). Tumor volumes (mm^3) were monitored twice weekly and were calculated from caliper (PLEXX) measurements as: 0.52×(length)×(width)^2.

LCLC-103H cells = assay: Cytotoxicity assay (CellTiter-Glo) in LCLC-103H cells; assay type: cell-based, human; details: 5 days incubation
Protocol: as §2, §3

B1: IgG1-AXL-148-vcMMAE: anti-AXL antibody 148 (VH SEQ ID No 5, VL SEQ ID No 6), Ig2 binder, conjugated to vcMMAE (conjugate)
VH: EVQLLESGGGLVQPGGSLRLSCAASGFTFSSYAMTWVRQAPGKGLEWVSAISISGGSTFYADSVKGRFTISRDNSKNTLYLQMNSLRAEDTAVYYCRGYSGYVYDAFDFWGQGTMVTVSS
VL: DIQMTQSPSSLSASVGDRVTITCRASQGISNWLAWYQQKPEKAPKSLIYAASSLQSGVPSRFSGSGSGTDFTLTISSLQPEDFATYYCQQYNSYPLTFGGGTKVEIK
modifications: vc-MMAE conjugate; homo sapiens
anti-tumor activity in the LCLC-103H xenograft model (LCLC-103H tumors): induced tumor regression | EC50 Mean (A431 cells): 0.070 µg/mL | complete tumor reduction ([1]; 1 mg/kg single i.p.): in some mice within these groups to complete tumor reduction | tumor volume versus control IgG1-b12 ([1]; day 30, One Way ANOVA (Dunnett's), 1 mg/kg single i.p.): highly significant difference | anti-tumor activity in established SC LCLC-103H tumors ([1]; single i.p. injection 1 mg/kg, SCID mice): induced tumor regression | pharmacokinetic properties, unconjugated antibody (study 3) versus ADC (study 2) [2]: similar | EC50 Mean (MDA-MB231 cells): 0.012 µg/mL | competition with Gas6 for binding to AXL (AXL): lack of competition | anti-tumor activity on A431 tumors (A431 tumors): induced growth inhibition | growth of PAXF1657 tumors compared to the control group (PAXF1657 tumors; 2 mg/kg i.v., day 0): significantly reduced the growth | anti-tumor activity on PAXF1657 tumors (PAXF1657 tumors; 4 mg/kg i.v., day 0): induced tumor regression | average tumor size versus isotype control IgG1-b12 (PAXF1657 tumors; day 14, 2 mg/kg or 4 mg/kg, p<0.001 Tukey's multiple comparison test): significantly smaller | anti-tumor activity in the PAXF1657 model (PAXF1657 tumors; dose not given): induced dose-dependent antitumor activity | EC50 (LCLC-103H cells): 0.012 µg/mL
